One test concerns the target T1, TmrAB D140A^TmrA (Thermus thermophilus, UniProt Q72J05 1-600; Q72J04 1-578, D140A).
T1 construct: TmrA, Thermus thermophilus, the chain of TmrAB with the canonical Walker B motif; TmrB, Thermus thermophilus, the chain of TmrAB with the non-canonical Walker B motif
T1 sequence 1: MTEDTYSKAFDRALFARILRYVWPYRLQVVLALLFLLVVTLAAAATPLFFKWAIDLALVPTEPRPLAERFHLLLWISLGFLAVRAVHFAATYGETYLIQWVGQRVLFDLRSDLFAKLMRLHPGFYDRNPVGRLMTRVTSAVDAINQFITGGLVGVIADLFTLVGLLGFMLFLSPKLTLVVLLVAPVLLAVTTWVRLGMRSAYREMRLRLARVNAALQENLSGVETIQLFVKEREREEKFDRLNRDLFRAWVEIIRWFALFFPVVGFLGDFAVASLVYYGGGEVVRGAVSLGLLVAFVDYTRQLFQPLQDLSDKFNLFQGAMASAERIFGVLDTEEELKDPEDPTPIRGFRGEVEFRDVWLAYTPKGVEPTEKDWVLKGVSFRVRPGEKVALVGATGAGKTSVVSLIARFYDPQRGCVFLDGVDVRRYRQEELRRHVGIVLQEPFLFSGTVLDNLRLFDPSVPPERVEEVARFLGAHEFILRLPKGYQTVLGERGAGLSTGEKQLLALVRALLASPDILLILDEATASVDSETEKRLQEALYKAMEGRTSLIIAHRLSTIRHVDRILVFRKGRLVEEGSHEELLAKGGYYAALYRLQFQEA
T1 sequence 2: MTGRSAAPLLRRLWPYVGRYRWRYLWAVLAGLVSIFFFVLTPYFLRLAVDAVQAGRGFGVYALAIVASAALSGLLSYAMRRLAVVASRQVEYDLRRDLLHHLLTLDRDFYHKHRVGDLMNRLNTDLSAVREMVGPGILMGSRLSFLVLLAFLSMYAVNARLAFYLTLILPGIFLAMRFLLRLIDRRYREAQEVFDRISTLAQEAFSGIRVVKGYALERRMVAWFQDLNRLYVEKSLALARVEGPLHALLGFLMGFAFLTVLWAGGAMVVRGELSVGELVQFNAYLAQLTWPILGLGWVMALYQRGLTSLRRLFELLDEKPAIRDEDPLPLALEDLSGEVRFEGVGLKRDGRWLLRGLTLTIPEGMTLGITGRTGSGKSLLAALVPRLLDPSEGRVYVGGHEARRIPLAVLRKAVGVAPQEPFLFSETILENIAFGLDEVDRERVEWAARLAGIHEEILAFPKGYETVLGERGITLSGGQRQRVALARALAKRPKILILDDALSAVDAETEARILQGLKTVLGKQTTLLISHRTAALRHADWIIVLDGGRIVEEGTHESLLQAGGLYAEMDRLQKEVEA
As to the kind of experiment: fluorescence polarisation; 1.7 uM TmrAB with 50 nM RRY(C^Fluorescein)KSTEL in SEC buffer (20 mM HEPES, 150 mM NaCl, pH 7, 0.05% ß-DDM), 15 minutes on ice, in the absence or presence of 5 mM ATP and 10 mM MgCl2; read at 25°C (the results say 4°C); signal normalized to WT without ATP. The settings on record: both partners purified.

The next test deals with T2, TmrAB G116A^TmrB (Thermus thermophilus, UniProt Q72J05 1-600; Q72J04 1-578, G116A).
T2 construct: TmrA, Thermus thermophilus, the chain of TmrAB with the canonical Walker B motif; TmrB, Thermus thermophilus, the chain of TmrAB with the non-canonical Walker B motif
T2 sequence 1: T1 sequence 1 with A140D
T2 sequence 2: T1 sequence 2 with G116A
Described as above. The settings on record: both partners purified.

Positions count from the first letter of the chain named. No end group written: not given here. fluorescein = fluorescein label attached to the Cys side chain

B1: fluorescent transport substrate peptide RRY(C^Fluorescein)KSTEL (peptide)
peptide: RRYC(fluorescein)KSTEL
notes: fluorescein-labelled transport substrate peptide of TmrAB; also called fluorescently-labeled peptide substrate; peptide substrate; source: bought: Genscript
On to B1, for which the binding result with TmrAB D140A^TmrA and in the test with TmrAB G116A^TmrB was “binds” throughout.
